# Test results reported in article PMC9636275 (Nature Communications, 2022).
# B1: PrpE: propionate CoA synthetase (protein, UniProt P77495 1-628, looked up)
# Propionate--CoA ligase: MSFSEFYQRSINEPEQFWAEQARRIDWQTPFTQTLDHSNPPFARWFCEGRTNLCHNAIDRWLEKQPEALALIAVSSETEEERTFTFRQLHDEVNAVASMLRSLGVQRGDRVLVYMPMIAEAHITLLACARIGAIHSVVFGGFASHSVAARIDDAKPVLIVSADAGARGGKIIPYKKLLDDAISQAQHQPRHVLLVDRGLAKMARVSGRDVDFASLRHQHIGARVPVAWLESNETSCILYTSGTTGKPKGVQRDVGGYAVALATSMDTIFGGKAGSVFFCASDIGWVVGHSYIVYAPLLAGMATIVYEGLPTWPDCGVWWTIVEKYQVSRMFSAPTAIRVLKKFPTAEIRKHDLSSLEVLYLAGEPLDEPTASWVSNTLDVPVIDNYWQTESGWPIMAIARGLDDRPTRLGSPGVPMYGYNVQLLNEVTGEPCGVNEKGMLVVEGPLPPGCIQTIWGDDGRFVKTYWSLFSRPVYATFDWGIRDADGYHFILGRTDDVINVAGHRLGTREIEESISSHPGVAEVAVVGVKDALKGQVAVAFVIPKESDSLEDRDVAHSQEKAIMALVDSQIGNFGRPAHVWFVSQLPKTRSGKMLRRTIQAICEGRDPGDLTTIDDPASLDQIRQAMEE
# Test system: PrpE
# Assay: In vitro assay for PrpE activity
# Format: biochemical, E. coli
# Conditions: result in words
# Procedure: This method was performed as described previously. In detail, the purified Acs or PrpE with a final concentration of 0.3 μM were added in the reaction buffer [50 mM HEPES, 10 mM MgCl2, 2.5 mM ATP, 0.5 mM HSCoA, 3 mM phosphoenolpyruvate, 0.1 mM NADH, 1 U pyruvate kinase, 1.5 U lactate dehydrogenase, 5 U myokinase, 10 mM DTT, and 0.2 mM organic acid substrate (acetate, lactate and propionate), PH 7.5] at 25 °C for 30 min. […] Each reaction was performed three biological repetitions.
# Samples dissolved in water were analyzed by an Orbitrap Exploris 480 (Thermo Scientific) mass spectrometer in positive ESI mode using the settings described previously[65],[66]. […] An Orbitrap Exploris 480 (Thermo Fisher Scientific) was employed for MS analysis. Spray voltage was set to 3.5 kV, funnel RF level at 40, and ion transfer tube temperature at 320 °C. Data were collected by Xcalibur (v.4.0.27.19). The orbitrap mass analyzer was used as the MS1 detector with 120,000 resolution. The normalized AGC target and maximum injection time were set at 70% /standard for MS1. The MS2 detector was used 15,000 resolution. Targeted mass setting is lactyl-CoA: 840.1436, acetyl-CoA: 810.1330 and propionate CoA: 824.1487. […] The relative intensity of acyl-CoA was analyzed by Xcalibur (v.4.0.27.19).
molecule,measurement,value
B1,formation of lactyl-CoA from lactate,neither Acs nor PrpE could catalyze the formation of lactyl-CoA from lactate
